Experimental findings from the supplement of paper PMC11246515 are described below.

The data set can be described thus: total protein half-life in vivo (active degradation + dilution); higher = more stable protein.
Where [1] appears, read: E. coli NCM3722 delta-clpP delta-lon delta-hslV, growth: N-lim chemostat, doubling time 6 h.
The mark [2] stands for this setting: E. coli NCM3722 delta-hslV, growth: N-lim chemostat, doubling time 6 h.
Where [3] appears, read: E. coli NCM3722 delta-lon, growth: N-lim chemostat, doubling time 6 h.
Setting [4] is: E. coli NCM3722 delta-smpB, growth: N-lim chemostat, doubling time 6 h.
Setting [5] is: wild type E. coli NCM3722, growth: C-lim chemostat, doubling time 3 h.
The mark [6] stands for this setting: wild type E. coli NCM3722, growth: C-lim chemostat, doubling time 6 h.
Setting [7] is: wild type E. coli NCM3722, growth: C-lim chemostat, doubling time 12 h.
Where [8] appears, read: wild type E. coli NCM3722, growth: N-lim chemostat, doubling time 6 h.
Where [9] appears, read: wild type E. coli NCM3722, growth: N-lim chemostat, doubling time 12 h.
[10] abbreviates: wild type E. coli NCM3722, growth: P-lim chemostat, doubling time 6 h.
Setting [11] is: wild type E. coli NCM3722, growth: P-lim chemostat, doubling time 12 h.
Where [12] appears, read: E. coli NCM3722 delta-clpP, growth: N-lim chemostat, doubling time 6 h.

± gives the standard deviation of the averaged measurements.

As to “MQQVFFQETEFLNSVIDYDHKVETENLCLDIAYGTDKNFLFGCGISIASILKYNEGSRLCFHIFTDYFGDDDRKYFDALALQYKTRIKIYLINGDRLRSLPSTKNWTHAIYFRFVIADYFINKAPKVLYLDADIICQGTIEPLINFSFPDDKVAMVVTEGQADWWEKRAHSLGVAGIAKGYFNSGFLLINTAQWAAQQVSARAIAMLNEPEIIKKITHPDQDVLNMLLADKLIFADIKYNTQFSLNYQLKESFINPVTNDTIFIHYIGPTKPWHDWAWDYPVSQAFMEAKNASPWKNTALLKPNNSNQLRYSAKHMLKKHRYLKGFSNYLFYFIEKIKH”, the “total protein half-life in vivo” value by setting is: under setting [1], 6.72 ± 0.28 h; under setting [2], 5.66 ± 0.42 h; under setting [3], 5.78 ± 0.3 h; under setting [4], 5.82 ± 0.17 h; under setting [5], 2.95 ± 0.088 h; under setting [6], 5.41 ± 0.61 h. For the same sequence, the “total protein half-life in vivo” value reads like this: under setting [7], 10.4 ± 1.1 h; under setting [8], 5.16 ± 1.2 h; under setting [9], 11.7 ± 0.74 h; under setting [10], 5.85 ± 0.45 h; under setting [11], 11.3 ± 1 h.

Turning to “MNLSTKQKQHLKGLAHPLKPVVLLGSNGLTEGVLAEIEQALEHHELIKVKIATEDRETKTLIVEAIVRETGACNVQVIGKTLVLYRPTKERKISLPR [P0AGK4]”, the “total protein half-life in vivo” value reads like this: under setting [1], 7 ± 0.84 h; under setting [12], 5.91 ± 0.59 h; under setting [2], 6.12 ± 0.24 h; under setting [3], 6.47 ± 0.075 h; under setting [4], 5.7 ± 0.41 h; under setting [5], 3.11 ± 0.53 h. The “total protein half-life in vivo” value is, setting by setting: under setting [6], 5.73 ± 0.12 h; under setting [7], 9.46 ± 1.2 h; under setting [8], 4.83 ± 0.25 h; under setting [9], 10.8 ± 2.1 h; under setting [10], 4.88 ± 1.1 h; under setting [11], 12.6 ± 3 h.

As to “MTAPSQVLKIRRPDDWHLHLRDGDMLKTVVPYTSEIYGRAIVMPNLAPPVTTVEAAVAYRQRILDAVPAGHDFTPLMTCYLTDSLDPNELERGFNEGVFTAAKLYPANATTNSSHGVTSIDAIMPVLERMEKIGMPLLVHGEVTHADIDIFDREARFIESVMEPLRQRLTALKVVFEHITTKDAADYVRDGNERLAATITPQHLMFNRNHMLVGGVRPHLYCLPILKRNIHQQALRELVASGFNRVFLGTDSAPHARHRKESSCGCAGCFNAPTALGSYATVFEEMNALQHFEAFCSVNGPQFYGLPVNDTFIELVREEQQVAESIALTDDTLVPFLAGETVRWSVKQ”, the “total protein half-life in vivo” value by setting is: under setting [1], 5.58 ± 0.26 h; under setting [12], 5.17 ± 0.099 h; under setting [2], 5.194 ± 0.04 h; under setting [3], 5.46 ± 0.25 h; under setting [4], 4.78 ± 0.2 h; under setting [5], 2.85 ± 0.047 h. Also, the “total protein half-life in vivo” value under setting [6] worked out at 5.64 ± 0.76 h; the “total protein half-life in vivo” value under setting [7] was determined as 8.19 ± 2.8 h; the “total protein half-life in vivo” value under setting [8] was 5.06 ± 0.61 h; the “total protein half-life in vivo” value under setting [9] came out at 9.47 ± 0.78 h; the “total protein half-life in vivo” value under setting [10] came to 6.06 ± 0.17 h; the “total protein half-life in vivo” value under setting [11] was 13.6 ± 0.86 h.

Take “MRSLADFEFNKAPLCEGMILACEAIRRDFPSQDVYDELERLVSLAKEEISQLLPLEEQLEKLIALFYGDWGFKASRGVYRLSDALWLDQVLKNRQGSAVSLGAVLLWVANRLDLPLLPVIFPTQLILRIECPDGEIWLINPFNGESLSEHMLDVWLKGNISPSAELFYEDLDEADNIEVIRKLLDTLKASLMEENQMELALRTSEALLQFNPEDPYEIRDRGLIYAQLDCEHVALNDLSYFVEQCPEDPISEMIRAQINNIAHKHIVLH [P0AGM5]”: the “total protein half-life in vivo” value under setting [5] was 0.281 h.

With “MFEITGINVSGALKAVVMATGFENPLSSVNEIETKLSALLGSETTGEILFDLLCANGPEWNRFVTLEMKYGRIMLDTAKIIDEQDVPTHILSKLTFTLRNHPEYLEASVLSPDDVRQVLSMDF”, the “total protein half-life in vivo” value came to 5.32 ± 0.4 h under setting [1], 2.73 h under setting [5] and 5.11 h under setting [6].

As for “MRRLRFSPRSSFARTLLLIVTLLFASLVTTYLVVLNFAILPSLQQFNKVLAYEVRMLMTDKLQLEDGTQLVVPPAFRREIYRELGISLYSNEAAEEAGLRWAQHYEFLSHQMAQQLGGPTEVRVEVNKSSPVVWLKTWLSPNIWVRVPLTEIHQGDFSPLFRYTLAIMLLAIGGAWLFIRIQNRPLVDLEHAALQVGKGIIPPPLREYGASEVRSVTRAFNHMAAGVKQLADDRTLLMAGVSHDLRTPLTRIRLATEMMSEQDGYLAESINKDIEECNAIIEQFIDYLRTGQEMPMEMADLNAVLGEVIAAESGYEREIETALYPGSIEVKMHPLSIKRAVANMVVNAARYGNGWIKVSSGTEPNRAWFQVEDDGPGIAPEQRKHLFQPFVRGDSARTISGTGLGLAIVQRIVDNHNGMLELGTSERGGLSIRAWLPVPVTRAQGTTKEG [P0AEJ4]”, the “total protein half-life in vivo” value runs as follows: under setting [1], 6.372 ± 0.049 h; under setting [12], 7.33 ± 0.82 h; under setting [2], 6.19 ± 0.26 h; under setting [3], 6.19 ± 0.32 h; under setting [4], 6.14 ± 0.39 h; under setting [5], 3.2 ± 0.14 h. Besides, the “total protein half-life in vivo” value was determined as 6.16 ± 0.14 h under setting [6]; 6.35 ± 0.27 h under setting [8]; 13.1 ± 0.43 h under setting [9]; 6.87 ± 0.93 h under setting [10]; 14.12 ± 0.043 h under setting [11].

As for “MPLLDIRNLTIEFKTGDEWVKAVDRVSMTLTEGEIRGLVGESGSGKSLIAKAICGVNKDNWRVTADRMRFDDIDLLRLSARERRKLVGHNVSMIFQEPQSCLDPSERVGRQLMQNIPAWTYKGRWWQRFGWRKRRAIELLHRVGIKDHKDAMRSFPYELTEGECQKVMIAIALANQPRLLIADEPTNSMEPTTQAQIFRLLTRLNQNSNTTILLISHDLQMLSQWADKINVLYCGQTVETAPSKELVTMPHHPYTQALIRAIPDFGSAMPHKSRLNTLPGAIPLLEQLPIGCRLGPRCPYAQRECIVTPRLTGAKNHLYACHFPLNMEKE [P0AAH4]”, the “total protein half-life in vivo” value worked out at 6.47 ± 1 h under setting [1]; 5.65 ± 0.24 h under setting [12]; 5.68 ± 0.59 h under setting [2]; 5.96 ± 0.44 h under setting [3]; 5.11 ± 0.24 h under setting [4]; 2.86 ± 0.12 h under setting [5]. Also, the “total protein half-life in vivo” value reads like this: under setting [6], 5.52 ± 0.2 h; under setting [7], 11.19 ± 0.067 h; under setting [8], 5.58 ± 0.23 h; under setting [9], 10.5 ± 0.24 h; under setting [10], 5.43 ± 0.13 h; under setting [11], 10.9 ± 0.29 h.

Turning to “MKKILLMLSLLFFTTAGFSEVSDTLVTGGYDKQAMSDAIKHARKETDKFIEVMNKKDADTFAVKAPITDHGRTEHFWLTDVTYSNGMFIGVISNDPGIVTNVEYGQEWKIKKEDISDWMYTRGDKIYGGYTIDPLLVTYPKEEADELRAKLVR”, the “total protein half-life in vivo” value reads like this: under setting [1], 3.76 h; under setting [12], 4.8 h; under setting [2], 4.78 ± 1.5 h; under setting [3], 5.28 h; under setting [4], 4.01 ± 0.41 h; under setting [5], 2.2 h. Also, the “total protein half-life in vivo” value is, setting by setting: under setting [6], 5.15 ± 0.19 h; under setting [7], 6.65 h; under setting [8], 4.65 h; under setting [9], 7.64 h; under setting [10], 3.47 ± 0.23 h; under setting [11], 5.28 ± 1.1 h.
